T1: His-tagged NIN-LIKE PROTEIN 7 (His-NLP7) (Arabidopsis thaliana, UniProt Q84TH9 1-959)
T1 sequence (looked up): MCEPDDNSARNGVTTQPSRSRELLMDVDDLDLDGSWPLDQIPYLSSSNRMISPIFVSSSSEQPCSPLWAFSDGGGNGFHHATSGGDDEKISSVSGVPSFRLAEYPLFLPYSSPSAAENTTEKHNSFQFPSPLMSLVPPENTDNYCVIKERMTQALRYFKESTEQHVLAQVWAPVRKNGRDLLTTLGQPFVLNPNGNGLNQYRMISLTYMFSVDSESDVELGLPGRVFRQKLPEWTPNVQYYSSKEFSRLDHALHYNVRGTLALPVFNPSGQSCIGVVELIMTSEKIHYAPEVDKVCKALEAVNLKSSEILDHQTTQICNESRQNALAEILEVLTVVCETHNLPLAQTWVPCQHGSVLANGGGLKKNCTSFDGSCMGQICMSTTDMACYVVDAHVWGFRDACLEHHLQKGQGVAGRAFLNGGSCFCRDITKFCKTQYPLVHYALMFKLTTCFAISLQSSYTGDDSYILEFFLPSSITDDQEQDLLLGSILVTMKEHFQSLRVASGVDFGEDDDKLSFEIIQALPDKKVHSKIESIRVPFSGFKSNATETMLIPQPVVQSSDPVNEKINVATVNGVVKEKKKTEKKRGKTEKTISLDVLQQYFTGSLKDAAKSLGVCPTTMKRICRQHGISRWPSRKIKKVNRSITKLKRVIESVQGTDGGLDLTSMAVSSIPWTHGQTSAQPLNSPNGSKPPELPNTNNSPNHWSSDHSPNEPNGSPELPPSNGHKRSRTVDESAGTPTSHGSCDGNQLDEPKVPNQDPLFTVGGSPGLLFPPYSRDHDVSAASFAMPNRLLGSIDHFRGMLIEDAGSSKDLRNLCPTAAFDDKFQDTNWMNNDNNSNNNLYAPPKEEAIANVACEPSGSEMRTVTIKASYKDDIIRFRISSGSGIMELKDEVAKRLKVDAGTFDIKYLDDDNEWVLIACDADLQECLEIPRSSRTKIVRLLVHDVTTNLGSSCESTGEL

B1: CBF1-NREL probe (dsDNA)
DNA 1: AAAAGTCTCTTTACAAGGGTCAAA
DNA 2: TTTGACCCTTGTAAAGAGACTTTT
B2: GST-tagged CALCIUM-DEPENDENT PROTEIN KINASE 28 (GST-CPK28) (enzyme, Arabidopsis thaliana, UniProt Q9FKW4 1-523, looked up)
chain: MGVCFSAIRVTGASSSRRSSQTKSKAAPTPIDTKASTKRRTGSIPCGKRTDFGYSKDFHDHYTIGKLLGHGQFGYTYVAIHRPNGDRVAVKRLDKSKMVLPIAVEDVKREVQILIALSGHENVVQFHNAFEDDDYVYIVMELCEGGELLDRILSKKGNRYSEKDAAVVVRQMLKVAGECHLHGLVHRDMKPENFLFKSAQLDSPLKATDFGLSDFIKPGKRFHDIVGSAYYVAPEVLKRRSGPESDVWSIGVITYILLCGRRPFWDRTEDGIFKEVLRNKPDFSRKPWATISDSAKDFVKKLLVKDPRARLTAAQALSHAWVREGGNATDIPVDISVLNNLRQFVRYSRLKQFALRALASTLDEAEISDLRDQFDAIDVDKNGVISLEEMRQALAKDLPWKLKDSRVAEILEAIDSNTDGLVDFTEFVAAALHVHQLEEHDSEKWQLRSRAAFEKFDLDKDGYITPEELRMHTGLRGSIDPLLDEADIDRDGKISLHEFRRLLRTASISSQRAPSPAGHRNLR

Tests used:
[1] = molecular target: His-NLP7 (RWP-RK) (Arabidopsis thaliana, UniProt Q84TH9 535-733); assay: EMSA
[2] = molecular target: T1, His-tagged NIN-LIKE PROTEIN 7 (His-NLP7); assay: pull-down

Binder | binding result [1] | binding result [2]
B1 | binds | 
B2 |  | binds
